B1: dsDNA DPC (C3A11XA12C3 + 30-mer) (dsDNA)
DNA 1: CCCAAAAAAAAAAATAAAAAAAAAAAACCC
DNA 2: GGGTTTTTTTTTTTTATTTTTTTTTTTGGG
modifications: T15 is SH-C9-dT crosslinked to protein G; 3' phosphate on strand 1
B2: ss/dsDNA junction DPC (C3A11XA12C3 + 15-mer) (mixed)
DNA 1: CCCAAAAAAAAAAATAAAAAAAAAAAACCC
DNA 2: GGGTTTTTTTTTTTT
modifications: T15 is SH-C9-dT crosslinked to protein G; 3' phosphate on strand 1
B3: internal DPC dsDNA (X15) (dsDNA)
DNA 1: ACCAGTGCCTTGCTTGGACATCTTTGCCCA
DNA 2: TGGGCAAAGATGTCCAAGCAAGGCACTGGT
modifications: T15 is SH-C9-dT crosslinked to protein G; 3' phosphate on strand 1

molecular target: T1, SPRTN ZBD (human, UniProt Q9H040 151-215); assay: NMR
T1 sequence: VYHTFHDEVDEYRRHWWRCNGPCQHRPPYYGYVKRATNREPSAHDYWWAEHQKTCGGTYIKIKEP

Binding result, binds:
AAAAAAAAAAAAAAA (ssDNA) [poly(dA) 15-mer]

molecular target: T2, SPRTN-EQ (human, UniProt Q9H040 1-489, E112Q); assay: EMSA
T2 sequence: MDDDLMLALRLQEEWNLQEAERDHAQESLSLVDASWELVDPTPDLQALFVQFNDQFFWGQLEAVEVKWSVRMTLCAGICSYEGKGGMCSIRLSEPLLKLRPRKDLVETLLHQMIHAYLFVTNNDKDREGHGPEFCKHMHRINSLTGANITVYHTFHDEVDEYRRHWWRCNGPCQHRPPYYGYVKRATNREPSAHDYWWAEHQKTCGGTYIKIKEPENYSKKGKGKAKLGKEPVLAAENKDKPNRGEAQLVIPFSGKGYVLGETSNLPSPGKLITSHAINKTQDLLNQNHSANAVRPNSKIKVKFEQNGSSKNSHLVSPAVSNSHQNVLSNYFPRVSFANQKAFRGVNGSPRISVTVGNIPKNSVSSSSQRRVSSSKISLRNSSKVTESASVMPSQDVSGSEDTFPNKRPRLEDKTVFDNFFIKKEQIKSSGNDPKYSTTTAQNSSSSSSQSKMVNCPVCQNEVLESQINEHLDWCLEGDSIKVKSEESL

Binding result, binds:
ACCAGTGCCTTGCTAGGACATCTTTGCCCT (ssDNA, T30 is SH-C9-dT crosslinked to protein G; 3' phosphate) [3' DPC ss (X30)]
B1
B2
TCCAGTGCCTTGCTAGGACATCTTTGCCCA (ssDNA, T1 is SH-C9-dT crosslinked to protein G; 3' phosphate) [5' DPC ss (X1)]
ACCAGTGCCTTGCTTGGACATCTTTGCCCA (ssDNA, T15 is SH-C9-dT crosslinked to protein G; 3' phosphate) [internal DPC ss (X15)]
B3
GATGTCCTAGCAAGG (structured_DNA) [15-mer hairpin (oJS_106)]

molecular target: T3, SPRTN ZBD-BR (human, UniProt Q9H040 151-245); assay: NMR
T3 sequence: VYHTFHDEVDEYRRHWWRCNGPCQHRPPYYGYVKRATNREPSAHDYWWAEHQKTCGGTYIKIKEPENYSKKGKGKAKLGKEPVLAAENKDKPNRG

Binding result, binds:
AAAAAAAAAAAAAAA (ssDNA) [poly(dA) 15-mer]
